# In article PMC12312913 (2025):
# B1: OmpX (protein)
# chain: ATSTVTGGYAQSDAQGQMNKMGGFNLKYRYEEDNSPLGVIGSFTYTEKSRTASSGDYNKNQYYGITAGPAYRINDWASIYGVVGVGYGKFQTTEYPTYKHDTSDYGFSYGAGLQFNPMENVALDFSYEQSRIRSVDVGTWIAGVGYRF
# B2: BtuB (protein)
# chain: QDTSPDTLVVTANRFQQPRSAVLAPVTIVTRQDIERWQSTSVNDVLRRLPGVDIAQSGGAGQNSSIFIRGTNSSHVLVLIDGVRLNLAGVSGSADLSQFPVSLVQRIEYIRGPRSAIYGSDAIGGVVNIITTRDNPGTELTAGWGSNSYQNYDISTQQQLGENTRATLIGDYEYTKGFDVVAKGGTGMQAQPDRDGFLSKTLYGALEHTFSDRWSGFVRGYGYDNRTDYDAYYSPGSPLIDTRKLYSQSWDAGLRFNGERIQSQLVSSYSHSKDYNYDPHYGRYDTSATLDEMKQYNVQWTNSVVVGHGNVGAGVDWQKQTTTPGTGYVPEGYDQRNTGVYLTGLQQLGDFTLEAAARSDDNSQFGRHGTWQTSAGWEFIEGYRFIASYGTSYKAPNLGQLYGYYGNPNLNPEKSKQWEGAFEGLTAGVSWRISGYRNDINDMIDYDDHLQKYYNEGKARIKGIEATANFDTGPLTHTVSYDYVDARNAITDTPLPRRSKQMAKYQLDWDVYDFDWGVTYQYLGSRYDSDYSAYPYRTVKMGGVSLWDLTVAYPVTSHLTVRGKIANLFDKDYETVYGYQTAGREYTLSGSYTF
# B3: OmpX fused to TF and His tag (receptor)
# chain: MKKIACLSALAAVLAFSAGTAVAATSTVTGGYAQSDAQGVANKMSGFNLKYRYEQDDNPLGVIGSFTYTEKDRTNGAGDYNKGQYYGITAGPAYRLNDWASIYGVVGVGYGKFQTTDYPTYKHDTSDYGFSYGAGLQFNPMENVALDFSYEQSRIRSVDVGTWIAGVGYRF
# Experiments:
# J protein = target: T1, J protein (bacteriophage, UniProt P0DXX7); assay: BLI
# T1 chain: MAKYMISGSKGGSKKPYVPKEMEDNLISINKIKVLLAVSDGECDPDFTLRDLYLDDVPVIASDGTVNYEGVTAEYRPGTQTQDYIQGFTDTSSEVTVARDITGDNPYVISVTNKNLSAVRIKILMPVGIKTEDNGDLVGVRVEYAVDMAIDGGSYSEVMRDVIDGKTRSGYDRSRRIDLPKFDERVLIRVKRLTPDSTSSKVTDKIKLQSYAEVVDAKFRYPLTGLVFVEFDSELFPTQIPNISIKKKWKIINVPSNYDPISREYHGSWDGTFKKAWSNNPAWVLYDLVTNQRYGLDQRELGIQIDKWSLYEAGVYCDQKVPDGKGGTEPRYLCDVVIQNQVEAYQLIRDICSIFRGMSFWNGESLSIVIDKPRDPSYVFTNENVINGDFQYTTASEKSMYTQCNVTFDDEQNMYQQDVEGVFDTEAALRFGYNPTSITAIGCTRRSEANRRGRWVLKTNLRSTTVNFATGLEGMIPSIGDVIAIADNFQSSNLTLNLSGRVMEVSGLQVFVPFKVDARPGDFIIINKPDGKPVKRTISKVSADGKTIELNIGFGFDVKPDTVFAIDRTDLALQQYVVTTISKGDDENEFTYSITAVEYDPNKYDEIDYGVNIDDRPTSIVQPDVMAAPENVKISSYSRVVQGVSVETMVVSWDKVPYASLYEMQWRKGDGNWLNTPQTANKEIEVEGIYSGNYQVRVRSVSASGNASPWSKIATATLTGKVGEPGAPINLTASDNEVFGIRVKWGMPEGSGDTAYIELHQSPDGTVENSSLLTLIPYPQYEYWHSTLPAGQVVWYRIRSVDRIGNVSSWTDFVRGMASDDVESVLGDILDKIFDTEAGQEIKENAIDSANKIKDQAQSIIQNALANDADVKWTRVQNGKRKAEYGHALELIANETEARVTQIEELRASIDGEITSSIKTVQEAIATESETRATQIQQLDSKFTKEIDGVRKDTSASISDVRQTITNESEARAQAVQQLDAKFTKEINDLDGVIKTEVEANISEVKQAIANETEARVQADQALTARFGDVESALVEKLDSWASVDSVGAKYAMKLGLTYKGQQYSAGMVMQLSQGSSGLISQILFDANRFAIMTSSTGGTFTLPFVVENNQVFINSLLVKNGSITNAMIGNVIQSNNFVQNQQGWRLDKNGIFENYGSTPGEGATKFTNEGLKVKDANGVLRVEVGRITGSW
# [1] = target: Gifsy-1 central tail tip J protein with Flag tag (phage Gifsy-1 of Salmonella Typhimurium); assay: BLI
binder,measurement,setting,value
B1,Kd,J protein,70 nM
B2,Kd,J protein,0.00597 nM
B3,koff,[1],0.000275 s⁻¹
